The source of these data is FireProtDB (doi:10.1021/acs.biochem.7b00833).

For the series the following is noted: Bacillus subtilis (strain 168); pH 7; 25 °C; Urea; CD; Sodium Phosphate Buffer; whole UniProt chain shown.

B1: SCO1 protein homolog wild type, P54178 (protein)
chain: MKVIKGLTAGLIFLFLCACGGQQIKDPLNYEVEPFTFQNQDGKNVSLESLKGEVWLADFIFTNCETICPPMTAHMTDLQKKLKAENIDVRIISFSVDPENDKPKQLKKFAANYPLSFDNWDFLTGYSQSEIEEFALKSFKAIVKKPEGEDQVIHQSSFYLVGPDGKVLKDYNGVENTPYDDIISDVKSASTLK
As for B1, the denaturant m value is 3.51 kcal/mol/M, the “denaturant midpoint (higher = more stable)” value was determined as 2.91 M and the unfolding free energy is 9.93 kcal/mol.
